{"source": "patent US7056679", "about": "(ANTYRA, dated 2006)", "binders": {"B1": {"name": "DGI9-20M-4-A12 (peptide)", "peptide": "SRLALSSQHGLSLVAGRRRGGAPVPYPDPLEPR", "notes": "library 20R (the E-tag is described for library 20F); not shown: phage gene III coat protein (pCANTAB5E)"}, "B2": {"name": "DGI9-20M-4-A414 (peptide)", "peptide": "FLLQDFIMDAGSFVKPIGVGGAPVPYPDPLEPR", "notes": "library 20F; not shown: phage gene III coat protein (pCANTAB5E)"}, "B3": {"name": "DGI9-20M-4-A627 (peptide)", "peptide": "WDWSRFGAQLRGAILGRATGGAPVPYPDPLEPR", "notes": "as for B1"}, "B4": {"name": "DGI9-20M-4-E3 (peptide)", "peptide": "MAGFRGSGLSGYSEARLPRVGAPVPYPDPLEPR", "notes": "as for B2"}, "B5": {"name": "DGI-2-40F-3-B5 (peptide)", "peptide": "RSRSSSGASGSMLRVQNHMVLGSWMVRQPMGSMTPFHGHGAAAGAPVPYPDPLEPRP", "notes": "not shown: phage gene III coat protein (pCANTAB5E)"}, "B6": {"name": "DGI-2-40F-3-A12 (peptide)", "peptide": "RRTQPAYRSGADDRTSGFYCYVTSALSAGAWMPFLPRRLAAAAGAPVPYPDPLEPRP", "notes": "as for B5"}, "B7": {"name": "DGI-2-40F-3-D1 (peptide)", "peptide": "MGQGFHYNRQPYMSHQCYAFTFSTPFLDGDRIPHGVSRGLAAAGAPVPYPDPLEPRP", "notes": "as for B5"}, "B8": {"name": "DGI-2-40F-3-B4 (peptide)", "peptide": "LWLPCGLLVRPAQFYFYFSPLRHFLSSSVGSLSFPLSLLVAAAGAPVPYPDPLEPRP", "notes": "as for B5"}, "B9": {"name": "DGI-2-40F-3-B1 (peptide)", "peptide": "HGTRLRGVDYVMTWAGWQGYSSRKHVQQAVAGSSPGSDELAAAGAPVPYPDPLEPRP", "notes": "as for B5"}, "B10": {"name": "DGI-2-40F-3-A1 (SEQ ID NO: 187) (peptide)", "peptide": "QYFARGSFQFGLSHVLSAAAAFHLYVFCKRLSRGFGIKDDAAAGAPVPYPDPLEPRP", "notes": "as for B5"}, "B11": {"name": "DGI-2-40F-3-A8 (peptide)", "peptide": "GQISLAGVAVCSSERMLLAFSSRVFLPGLKVPVTTSQRGSAAAGAPVPYPDPLEPRP", "notes": "as for B5"}, "B12": {"name": "DGI-2-40F-3-D3 (peptide)", "peptide": "VQFAMTLSSRLWQHARHPLTDDAPPTVSFGTRRETLAGKAAAAGAPVPYPDPLEPRP", "notes": "as for B5"}, "B13": {"name": "DGI-2-40F-3-B6 (peptide)", "peptide": "QSNVWVLVGVIMQGVWYQRQHYCVYVMLLSDQVSVLLAVAAAAGAPVPYPDPLEPRP", "notes": "as for B5"}, "B14": {"name": "DGI-2-40F-3-A7 (peptide)", "peptide": "CAYRWGLFRGPGRVDYDLQVVGIMMWPGPIPDRSSRGSVAAAAGAPVPYPDPLEPRP", "notes": "as for B5"}}}
{"molecular_target": "T1, DGI-9 (HEC) (UniProt O14777 1-642, limits assumed)", "T1 sequence (looked up)": "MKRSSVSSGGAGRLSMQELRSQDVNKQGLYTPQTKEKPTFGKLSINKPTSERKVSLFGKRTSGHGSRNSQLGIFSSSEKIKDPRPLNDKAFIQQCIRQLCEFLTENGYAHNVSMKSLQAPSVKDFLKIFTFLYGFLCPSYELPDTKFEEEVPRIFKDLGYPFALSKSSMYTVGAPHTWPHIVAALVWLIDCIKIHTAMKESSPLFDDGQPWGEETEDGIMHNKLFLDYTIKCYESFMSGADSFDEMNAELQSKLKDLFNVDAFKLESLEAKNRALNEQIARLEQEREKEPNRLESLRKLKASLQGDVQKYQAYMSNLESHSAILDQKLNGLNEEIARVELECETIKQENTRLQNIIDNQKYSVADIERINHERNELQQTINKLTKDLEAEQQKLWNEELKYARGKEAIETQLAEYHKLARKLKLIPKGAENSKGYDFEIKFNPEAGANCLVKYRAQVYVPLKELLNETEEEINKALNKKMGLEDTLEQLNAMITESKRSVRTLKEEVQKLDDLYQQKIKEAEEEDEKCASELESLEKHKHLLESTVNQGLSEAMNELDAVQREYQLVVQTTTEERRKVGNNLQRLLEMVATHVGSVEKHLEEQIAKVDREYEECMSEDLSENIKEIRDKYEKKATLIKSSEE", "assay": "phage ELISA; DGI-9 signal over LDH signal", "units": {"DGI9/LDH": "ratio"}}
{"binder": "B1", "DGI9/LDH": 2.1}
{"binder": "B2", "DGI9/LDH": 8.1}
{"binder": "B3", "DGI9/LDH": 6.5}
{"binder": "B4", "DGI9/LDH": 7.1}
{"molecular_target": "T1, DGI-9 (HEC)", "assay": "phage ELISA; DGI-9 coated", "units": {"DGI-9": "ratio over background"}}
{"binder": "B1", "DGI-9": 1.9}
{"binder": "B2", "DGI-9": 8.7}
{"binder": "B3", "DGI-9": 6}
{"binder": "B4", "DGI-9": 7}
{"molecular_target": "T2, antibody raised against ETAG", "T2 construct": "read-out of display; also called E-tag antibody; E tag antibody", "assay": "phage ELISA, 405 nm; anti-E-tag antibody coated", "protocol": "(§1) For analysis of individual target binders, colonies were picked and phage prepared as described above using helper phage, M13KO7. Ninety-six-well microtiter plates were coated with 500 ng/well of specific target protein, 500 ng/well lactate dehydrogenase (LDH) irrelevant or non-specific target, 500 ng/well of positive control antibody raised against ETAG, and negative control of non-fat milk powder-PBS 2% at 4° C. overnight. Plates were then blocked with 350 microliters/well PBS containing 2% non-fat milk for 1 hr at room temperature. One hundred microliters per well of phage from isolated clones were added and plates were incubated at room temperature for 2 hr after centrifuging samples for 20 minutes at 3500 rpm at 4° C. The phage solution was then removed, and the wells were washed three times with PBS at room temperature. Antibody raised against M13 conjugated to horseradish peroxidase (Pharmacia) was diluted 1:3000 in PBS-Tween and added to each well (100 µl/well). Incubation was for 1 hr at room temperature, followed by washing with PBS-(0.5%) Tween 3 times as described. Color was developed by addition of ABTS solution (100 µl/well; Boehringer, Indianapolis, Ind.). Plates were analyzed at 405 nm. A clone was considered \"positive\" if the $A405$ of the well was $\\geq$2-fold over background.", "units": {"ETAG (OD)": "OD"}}
{"binder": "B5", "ETAG (OD)": 9.2}
{"binder": "B6", "ETAG (OD)": 4.6}
{"binder": "B7", "ETAG (OD)": 4.1}
{"binder": "B8", "ETAG (OD)": 1.5}
{"binder": "B9", "ETAG (OD)": 6.3}
{"binder": "B10", "ETAG (OD)": 2.4}
{"binder": "B11", "ETAG (OD)": 1.5}
{"binder": "B12", "ETAG (OD)": 0.9}
{"binder": "B13", "ETAG (OD)": 1.8}
{"binder": "B14", "ETAG (OD)": 8.7}
{"molecular_target": "T2, antibody raised against ETAG", "assay": "phage ELISA; anti-E-tag antibody coated", "units": {"E-Tag": "ratio over background"}}
{"binder": "B1", "E-Tag": 20.7}
{"binder": "B2", "E-Tag": 32.6}
{"binder": "B3", "E-Tag": 27.2}
{"binder": "B4", "E-Tag": 34.5}
{"molecular_target": "T3, DGI-2 polypeptide (UniProt Q15004 1-111, limits assumed)", "T3 construct": "Vector-derived residues or tag of pIVEX2.3 are not described for this construct; also called KIAA0101", "T3 sequence (looked up)": "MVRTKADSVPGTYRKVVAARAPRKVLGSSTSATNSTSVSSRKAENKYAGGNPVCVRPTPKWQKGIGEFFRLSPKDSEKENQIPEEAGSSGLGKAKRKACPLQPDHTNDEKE", "assay": "phage ELISA, 405 nm; DGI-2 coated", "protocol": "as §1", "units": {"DGI-2 (OD)": "OD"}}
{"binder": "B5", "DGI-2 (OD)": 1}
{"binder": "B6", "DGI-2 (OD)": 0.9}
{"binder": "B7", "DGI-2 (OD)": 0.8}
{"binder": "B8", "DGI-2 (OD)": 1}
{"binder": "B9", "DGI-2 (OD)": 0.8}
{"binder": "B10", "DGI-2 (OD)": 0.8}
{"binder": "B11", "DGI-2 (OD)": 0.8}
{"binder": "B12", "DGI-2 (OD)": 0.9}
{"binder": "B13", "DGI-2 (OD)": 0.9}
{"binder": "B14", "DGI-2 (OD)": 0.9}
{"molecular_target": "T3, DGI-2 polypeptide", "assay": "phage ELISA, 405 nm; DGI-2 signal over LDH signal", "protocol": "as §1", "units": {"DGI-2/LDH (OD)": "ratio"}}
{"binder": "B5", "DGI-2/LDH (OD)": 1.2}
{"binder": "B6", "DGI-2/LDH (OD)": 1.1}
{"binder": "B7", "DGI-2/LDH (OD)": 1}
{"binder": "B8", "DGI-2/LDH (OD)": 1.1}
{"binder": "B9", "DGI-2/LDH (OD)": 1.2}
{"binder": "B10", "DGI-2/LDH (OD)": 1.1}
{"binder": "B11", "DGI-2/LDH (OD)": 1.1}
{"binder": "B12", "DGI-2/LDH (OD)": 1.1}
{"binder": "B13", "DGI-2/LDH (OD)": 1.2}
{"binder": "B14", "DGI-2/LDH (OD)": 1.1}
